The text below walks through data of PMC8986097, “SUMO-mediated recruitment allows timely function of the Yen1 nuclease in mitotic cells” (PLoS Genetics, 2022).

B1: Yen1-1xHA, wild-type, purified [S. cerevisiae] / GST-Smt3 [S. cerevisiae] (parent complex)
chain 1: MGVSQIWEFLKPYLQDSRIPLRKFVIDFNKSQKRAPRIAIDAYGWLFECGFIQNIDISARSRSRSRSPTRSPRDSDIDSSQEYYGSRSYTTTGKAVINFISRLKELLSLNVEFLLVFDGVMKPSFKRKFNHEQNATTCDDEKEYYSSWEQHVKNHEVYGNCKGLLAPSDPEFISLVRKLLDLMNISYVIACGEGEAQCVWLQVSGAVDFILSNDSDTLVFGGEKILKNYSKFYDDFGPSSITSHSPSRHHDSKESFVTVIDLPKINKVAGKKFDRLSLLFFSVLLGADYNRGVKGLGKNKSLQLAQCEDPNFSMEFYDIFKDFNLEDLTSESLRKSRYRLFQKRLYLYCKDHSVELFGRNYPVLLNQGSFEGWPSTVAIMHYFHPIVQPYFDEEVLSDKYINMAGNGHYRNLNFNELKYFLQSLNLPQISSFDKWFHDSMHEMFLLREFLSIDESDNIGKGNMRITEEKIMNIDGGKFQIPCFKIRYTTFLPNIPISSQSPLKRSNSPSRSKSPTRRQMDIMEHPNSLWLPKYLIPQSHPLVIQYYETQQLIQKEKEKKGKKSNKSRLPQKNNLDEFLRKHTSPIKSIGKVGESRKEILEPVRKRLFVDTDEDTSLEEIPAPTRLTTVDEHSDNDDDSLIFVDEITNSQSVLDSSPGKRIRDLTQDEQVDVWKDVIEISPIKKSRTTNAEKNPPESGLKSRSSITINARLQGTKMLPPNLTAPRLEREHSSVLDQLVTDAQDTVDRFVACDSDSSSTIE
chain 2: MSDSEVNQEAKPEVKPEVKPETHINLKVSDGSSEIFFKIKKTTPLRRLMEAFAKRQGKEMDSLRFLYDGIRIQADQTPEDLDMEDNDIIEAHREQIGGATY

The assay covers variants of B1. The assay is described as follows: pull-down (GST-Smt3 on Glutathione resin, immuno-blot anti-HA); 1/10 inputs, 1/4 elution; parent: 1.
As for chain 1 V675A, chain 1 E677A, the ratio to parent is 0.9.

Turning to chain 1 D635A, chain 1 D636A, chain 1 D637A, the ratio to parent is 0.9.
